Reference: patent publication US20220387487A1, “COMPOSITIONS AND METHODS FOR TREATMENT OF CANCER” (Aleta Biotherapeutics Inc., priority 2019, published 2022)
Like-named read-outs stand apart in the source and are kept apart here.

Columns and labels:
CD33 = CD33 (Homo sapiens, UniProt P20138); assay: ELISA of fusion proteins, FMC63 coat, biotinylated CD33 detection; assay type: binding
Description: ELISAs for binding to CD19, CLEC12A and CD33 were run using purified fusion proteins #330, #410 and #440. A 96 well plate was coated with 1.0 μg/ml FMC63 (Novus) in 0.1 M carbonate, pH 9.5 overnight at 4° C. The plate was blocked with 0.3% non-fat milk in TBS for 1 hour at room temperature. After washing in TBST (0.1 M Tris, 0.5 M NaCl, 0.05% Tween20) 3 times, the fusion protein supernatant was titrated using 3-fold dilutions in 1% BSA in TBS and incubated 1 hour at room temperature. For detection by anti-His, after washing 3 times in TBST, HRP-anti-His (BioLegend) was added at 1:2000. The plate was incubated at room temperature in the dark for 1 hour. For detection of binding to CLEC12A, biotinylated CLEC12A was added at 0.5 μg/ml and incubated for 1 hour. This was followed by adding HRP-SA (Pierce) at 1:2000 and incubated at room temperature in the dark for 1 hour. For testing binding to CD33, biotinylated CD33 was added at 0.5 μg/ml and incubated for 1 hour. This was followed by adding HRP-SA (Pierce) at 1:2000 and incubated at room temperature in the dark for 1 hour. Then, 1-Step Ultra TMB-ELISA (Thermo Fisher) solution, was added and the plate read at […]. Curves were fit using a four-parameter logistic (4 PL) regression to calculate the EC50.

Molm14 cells = assay: CAR-CD19 T cell cytotoxicity bridged by purified fusion protein, luciferase Molm14 cells; assay type: cell-based; conditions: FIG. 21A
Description: To test cytoxicity, luciferase labeled Molm14 or U937 cells were targeted for cytotoxic killing using a CAR19 T cell preparation and the purified proteins #330, #410 and #440 added in a dose titration. 1×10^4 target cells were added to each well (96 clear round bottom plate) in RPMI medium. The protein titration was started at 180 ng/ml with 3-fold serial titration into corresponding wells (25 μl per well). CAR-CD19 T cells were added at various E:T ratios to the target cells. After 48 hours the plate was centrifuged (450 RCF for 5 minutes) and the cells were washed 1× with PBS then centrifuged a second time. 20 μl lysis buffer was added into each well. The cell lysate was transferred to a 96 opaque white plate. The plates were read in a luminometer with an injector (Glomax Multi Detection System, Promega). The percent killing was calculated based upon the average loss of luminescence of the experimental vs the control (target cell only or target cell plus fusion protein only).

U937 cells = assay: CAR-CD19 T cell cytotoxicity bridged by purified fusion protein, luciferase U937 cells; assay type: cell-based; conditions: FIG. 21B
Description: Several fusion proteins were purified and evaluated for their ability to bridge killing of CLL-1 expressing cells by CAR-T cells that target CD19. Luciferase was introduced to U937 cells and […] by lentiviral transduction. On day 1 U937 cells were seeded at 1×10^4 per well of a round-bottom 96 well plate (Thermo Fisher) or 293T-CLL-1 cells were seeded in a flat bottom plate in cell culture media (RPMI 1640, 10% FBS). On day 2, the fusion proteins #357, #330 and #321 were added at 0.2 μg/ml (20 ng/well) with serial 3 fold dilutions where indicated, then left to incubate at 37° C. for 1 hour using the cell culture incubator. […]
On day 3, the plate was spun at 550 RCF for 5 minutes and rinsed with PBS then spun again to remove the PBS. […] The injector added 100 μl of Luciferase assay reagent per well, then the well was read immediately. The plate was then advanced to the next well for a repeat of the inject-then-read process. […]
The % cell death (aka cytotoxicity) was calculated as follows:
% killing=[1−luc reading (experimental wells)/luc reading (tumor cells without CAR T cells)]×100. […]
To test cytoxicity, luciferase labeled Molm14 or U937 cells were targeted for cytotoxic killing using a CAR19 T cell preparation and the purified proteins #330, #410 and #440 added in a dose titration. […] The plates were read in a luminometer with an injector (Glomax Multi Detection System, Promega). […]

CLEC12A = assay: ELISA binding of fusion proteins (FMC63 coat, HRP-anti-His detection); set-up: species or system human; conditions: purified fusion protein
CLEC12A, sequence (as listed by the source): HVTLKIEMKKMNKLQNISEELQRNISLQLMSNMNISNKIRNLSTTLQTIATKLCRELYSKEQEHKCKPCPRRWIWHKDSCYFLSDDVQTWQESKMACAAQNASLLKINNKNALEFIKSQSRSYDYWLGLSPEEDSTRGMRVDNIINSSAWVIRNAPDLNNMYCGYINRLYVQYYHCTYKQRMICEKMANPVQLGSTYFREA
Description: The binding of the biparatopic fusion proteins to CLEC12A was also examined by ELISA. […] The plate was left to incubate overnight at 4° C. The coated plate was blocked with TBS/0.3% nonfat dry milk (NFD) for 60 minutes at RT.

[1] = ELISA, FMC63 coat, biotinylated CD33

CD33, sequence (P20138 18-364): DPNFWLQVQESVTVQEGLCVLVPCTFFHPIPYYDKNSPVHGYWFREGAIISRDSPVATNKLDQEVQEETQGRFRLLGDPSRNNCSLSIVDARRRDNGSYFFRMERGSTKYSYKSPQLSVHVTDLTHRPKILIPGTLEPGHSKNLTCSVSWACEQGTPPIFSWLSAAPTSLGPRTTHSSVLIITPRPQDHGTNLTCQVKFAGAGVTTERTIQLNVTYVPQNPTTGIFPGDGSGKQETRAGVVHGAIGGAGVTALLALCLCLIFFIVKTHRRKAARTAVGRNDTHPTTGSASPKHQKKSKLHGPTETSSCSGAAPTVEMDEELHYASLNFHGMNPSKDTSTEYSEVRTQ

B1: #440: fusion protein comprising an anti-CLEC12A VHH, an anti-CD33 scFv, and a CD19 ECD; SEQ ID NO:321 (protein)
chain: MEFGLSWVFLVALFRGVQCQVQLVQSGAEVKKPGESVKVSCKASGYTFTNYGMNWVKQAPGQGLEWMGWINTYTGEPTYADKFQGRVTMTTDTSTSTAYMEIRNLGGDDTAVYYCARWSWSDGYYVYFDYWGQGTSVTVSSGGGGSGGGGSGGGGSDIVMTQSPDSLTVSLGERTTINCKSSQSVLDSSTNKNSLAWYQQKPGQPPKLLLSWASTRESGIPDRFSGSGSGTDFTLTIDSPQPEDSATYYCQQSAHFPITFGQGTRLEIKGGGGSGGGGSGGGGSGGGGSQVQLQESGGGLVQAGGSLRLSCVASGSIRSINVMGWYRQAPGKQRELVAACASDGNTYYADSVKGRFTISRDNAEKTVYLQMNNLKPDDTAVYYCDANSRGNYYSGQGTQVTVSSTSGPGGQGAGGGGSGGGGSGGGGSGGGGSPEEPLVVKVEEGDTAALWCLKGTSDGPTQQLTWSRESPLKPFLKYSLGVPGLGVHVRPDAISVVIRNVSQQMGGFYLCQPGPPSEKAWQPGWTVNVEGSGELFRWNVSDLGGLGCGLKNRSSEGPSSPSGKLMSPKLYVWAKDRPEIWEGEPPCLPPRDSLNQSLSRDLTVAPGSTLWLSCGVPPDSVSRGPLSWTHVHPKGPKSLLSLELKDDRPARDMWVMGTSLMLPRATAQDAGKWYCHRGNLTMSFHLEITARPSRHHHHHH
CD33 binding EC50 (CD33; [1]): 2.1 ng/mL | ELISA binding to CD33 (CD33; Table 10): binds equally well to both components | cytotoxicity on Molm14 cells (Molm14 cells): about equipotent | cytotoxicity on U937 cells (U937 cells): essentially the same activity

B2: #330: fusion protein comprised of a CD19 variant and an anti-CLL-1 VHH (2H3); SEQ ID NO:305 (protein)
chain: MEFGLSWVFLVALFRGVQCQVQLQESGGGLVQAGGSLRLSCVASGSIRSINVMGWYRQAPGKQRELVAACASDGNTYYADSVKGRFTISRDNAEKTVYLQMNNLKPDDTAVYYCDANSRGNYYSGQGTQVTVSSTSGPGGQGAGGGGSGGGGSGGGGSGGGGSPEEPLVVKVEEGDTAALWCLKGTSDGPTQQLTWSRESPLKPFLKYSLGVPGLGVHVRPDAISVVIRNVSQQMGGFYLCQPGPPSEKAWQPGWTVNVEGSGELFRWNVSDLGGLGCGLKNRSSEGPSSPSGKLMSPKLYVWAKDRPEIWEGEPPCLPPRDSLNQSLSRDLTVAPGSTLWLSCGVPPDSVSRGPLSWTHVHPKGPKSLLSLELKDDRPARDMWVMGTSLMLPRATAQDAGKWYCHRGNLTMSFHLEITARPSRHHHHHH
CD33 binding EC50 pM (CD33; [1]): ∞ | CD33 binding EC50 ng/ml (CD33; [1]): ∞ | cytotoxicity on Molm14 cells (Molm14 cells): less potent | EC50 (CLEC12A; FMC63 coat, read-out: CLEC12A binding (ELISA EC50)): 0.013 nM | EC50 (CLEC12A; Table 8, read-out: EC50 of binding by ELISA): 0.01 nM | cytotoxicity on U937 cells (U937 cells): highest cytotoxicity
